Tests used:
[1] = biological target: tif6a_arath TIFY6A (UniProt Q58G47)
[2] = biological target: tif6b_arath TIFY6B (UniProt Q9LVI4)
[3] = biological target: ti11b_arath TIFY11B (UniProt Q9C9E3)
[4] = biological target: ti11a_arath TIFY11A (UniProt Q9LDU5)
[5] = biological target: tif7_arath TIFY7 (UniProt Q8W4J8)
[6] = biological target: ti10b_arath TIFY10B (UniProt Q9S7M2)
[7] = biological target: tif5a_arath TIFY5A (UniProt Q8LBM2)
[8] = biological target: tif3b_arath TIFY3B (UniProt Q9C5K8)
[9] = biological target: tif3a_arath TIFY3A (UniProt Q9M246)
[10] = biological target: ti10a_arath TIFY10A (UniProt Q9LMA8)
[11] = biological target: tif9_arath TIFY9 (UniProt Q93ZM9)

Chain of tif7_arath TIFY7 (Q8W4J8 whole entry): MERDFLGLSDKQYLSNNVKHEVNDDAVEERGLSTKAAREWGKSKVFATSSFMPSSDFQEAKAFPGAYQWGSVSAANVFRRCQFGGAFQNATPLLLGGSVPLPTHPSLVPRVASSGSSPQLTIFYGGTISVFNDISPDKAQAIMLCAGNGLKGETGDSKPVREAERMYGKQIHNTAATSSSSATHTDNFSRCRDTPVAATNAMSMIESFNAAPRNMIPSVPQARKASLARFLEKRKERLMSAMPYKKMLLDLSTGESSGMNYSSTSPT
Chain of Transcription factor MYC3 (Arabidopsis thaliana (Mouse-ear cress)), Q9FIP9 F151A;L152A (Q9FIP9 whole entry F151A/L152A): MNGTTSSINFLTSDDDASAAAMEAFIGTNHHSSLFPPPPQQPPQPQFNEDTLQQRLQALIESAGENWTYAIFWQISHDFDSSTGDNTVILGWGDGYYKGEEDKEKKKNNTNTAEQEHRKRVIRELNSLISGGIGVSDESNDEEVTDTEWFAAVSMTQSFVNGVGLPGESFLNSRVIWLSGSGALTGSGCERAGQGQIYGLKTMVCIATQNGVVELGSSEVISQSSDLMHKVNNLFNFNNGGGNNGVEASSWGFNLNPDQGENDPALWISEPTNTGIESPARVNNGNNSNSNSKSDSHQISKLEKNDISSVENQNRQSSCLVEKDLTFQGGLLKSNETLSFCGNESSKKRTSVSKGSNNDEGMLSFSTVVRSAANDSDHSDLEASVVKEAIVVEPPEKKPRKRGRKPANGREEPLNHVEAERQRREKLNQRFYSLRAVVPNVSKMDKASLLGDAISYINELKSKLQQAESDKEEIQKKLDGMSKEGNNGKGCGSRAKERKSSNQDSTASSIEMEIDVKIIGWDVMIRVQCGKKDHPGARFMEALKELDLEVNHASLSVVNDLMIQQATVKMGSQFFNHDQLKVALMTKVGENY
Chain of Transcription factor MYC3 (Arabidopsis thaliana (Mouse-ear cress)), Q9FIP9 L152A (Q9FIP9 whole entry L152A): as the sequence (Q9FIP9 whole entry F151A/L152A) above, with A151F counted along it
Chain of Transcription factor MYC3 (Arabidopsis thaliana (Mouse-ear cress)), Q9FIP9 M155A (Q9FIP9 whole entry M155A): as the sequence (Q9FIP9 whole entry F151A/L152A) above, with A151F, A152L, M155A counted along it
Chain of tif5a_arath TIFY5A (Q8LBM2 whole entry): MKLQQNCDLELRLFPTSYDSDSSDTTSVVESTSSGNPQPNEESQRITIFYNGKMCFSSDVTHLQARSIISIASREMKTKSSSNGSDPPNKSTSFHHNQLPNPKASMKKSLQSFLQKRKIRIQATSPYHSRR
Chain of tif3a_arath TIFY3A (Q9M246 whole entry): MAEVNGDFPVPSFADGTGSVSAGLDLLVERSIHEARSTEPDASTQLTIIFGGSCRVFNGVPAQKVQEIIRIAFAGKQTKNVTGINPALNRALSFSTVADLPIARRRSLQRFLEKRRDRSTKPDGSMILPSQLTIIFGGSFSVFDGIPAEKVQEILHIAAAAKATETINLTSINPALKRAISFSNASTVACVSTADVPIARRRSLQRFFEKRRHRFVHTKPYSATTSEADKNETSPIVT
Chain of Transcription factor MYC3 (Arabidopsis thaliana (Mouse-ear cress)), Q9FIP9 F151A;M155A (Q9FIP9 whole entry F151A/M155A): as the sequence (Q9FIP9 whole entry F151A/L152A) above, with A152L, M155A counted along it
Chain of tif6b_arath TIFY6B (Q9LVI4 whole entry): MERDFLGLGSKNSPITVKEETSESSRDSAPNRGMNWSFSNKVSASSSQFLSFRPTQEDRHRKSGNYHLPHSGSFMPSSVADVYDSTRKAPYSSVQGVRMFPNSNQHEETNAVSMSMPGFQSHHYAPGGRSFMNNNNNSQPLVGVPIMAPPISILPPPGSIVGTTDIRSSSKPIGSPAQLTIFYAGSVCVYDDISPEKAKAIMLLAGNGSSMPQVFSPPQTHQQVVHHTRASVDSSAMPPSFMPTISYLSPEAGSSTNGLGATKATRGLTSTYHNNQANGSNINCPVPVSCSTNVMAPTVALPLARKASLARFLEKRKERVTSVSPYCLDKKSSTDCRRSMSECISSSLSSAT
Chain of ti10a_arath TIFY10A (Q9LMA8 whole entry): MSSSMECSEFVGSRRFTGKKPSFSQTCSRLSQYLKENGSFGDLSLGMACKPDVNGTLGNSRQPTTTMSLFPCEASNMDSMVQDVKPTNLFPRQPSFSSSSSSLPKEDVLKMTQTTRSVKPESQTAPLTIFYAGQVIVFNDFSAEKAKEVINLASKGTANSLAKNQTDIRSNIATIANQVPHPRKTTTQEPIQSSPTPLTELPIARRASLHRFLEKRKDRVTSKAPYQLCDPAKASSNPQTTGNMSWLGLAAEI
Chain of Transcription factor MYC3 (Arabidopsis thaliana (Mouse-ear cress)), Q9FIP9 F151A;L152A;M155A (Q9FIP9 whole entry F151A/L152A/M155A): as the sequence (Q9FIP9 whole entry F151A/L152A) above, with M155A counted along it
Chain of ti11b_arath TIFY11B (Q9C9E3 whole entry): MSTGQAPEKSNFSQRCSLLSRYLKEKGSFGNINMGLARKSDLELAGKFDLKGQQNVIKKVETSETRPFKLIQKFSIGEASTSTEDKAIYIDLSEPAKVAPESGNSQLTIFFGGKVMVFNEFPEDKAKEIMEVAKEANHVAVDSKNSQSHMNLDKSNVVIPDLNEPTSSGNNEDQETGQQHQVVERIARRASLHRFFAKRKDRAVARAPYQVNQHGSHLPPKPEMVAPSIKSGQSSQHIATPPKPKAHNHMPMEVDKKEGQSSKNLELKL
Chain of ti11a_arath TIFY11A (Q9LDU5 whole entry): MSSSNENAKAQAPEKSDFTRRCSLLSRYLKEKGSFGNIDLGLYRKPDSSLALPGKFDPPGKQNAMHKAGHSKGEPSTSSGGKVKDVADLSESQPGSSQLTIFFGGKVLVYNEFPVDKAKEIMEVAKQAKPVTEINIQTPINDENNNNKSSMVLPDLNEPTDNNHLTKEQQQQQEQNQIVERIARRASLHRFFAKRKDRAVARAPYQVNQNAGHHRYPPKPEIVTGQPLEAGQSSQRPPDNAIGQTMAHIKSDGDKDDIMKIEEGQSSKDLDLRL

effect of a mutation on the interaction [1] | effect of a mutation on the interaction [2] | effect of a mutation on the interaction [3] | effect of a mutation on the interaction [4] | effect of a mutation on the interaction [5] | effect of a mutation on the interaction [6] | effect of a mutation on the interaction [7] | effect of a mutation on the interaction [8] | effect of a mutation on the interaction [9] | effect of a mutation on the interaction [10] | effect of a mutation on the interaction [11] | Substance
disrupting interaction strength | – | – | – | – | – | – | – | – | – | – | Transcription factor MYC3 (Arabidopsis thaliana (Mouse-ear cress)), Q9FIP9 D94A
disrupting interaction strength | disrupting interaction strength | decreasing interaction strength | disrupting interaction strength | decreasing interaction strength | decreasing interaction strength | decreasing interaction strength | disrupting interaction strength | decreasing interaction strength | decreasing interaction strength | decreasing interaction strength | Transcription factor MYC3 (Arabidopsis thaliana (Mouse-ear cress)), Q9FIP9 F151A
disrupting interaction strength | disrupting interaction strength | disrupting interaction strength | disrupting interaction strength | disrupting interaction strength | disrupting interaction strength | disrupting interaction strength | disrupting interaction strength | disrupting interaction strength | disrupting interaction strength | disrupting interaction strength | Transcription factor MYC3 (Arabidopsis thaliana (Mouse-ear cress)), Q9FIP9 F151A;L152A
disrupting interaction strength | disrupting interaction strength | decreasing interaction strength | disrupting interaction strength | disrupting interaction strength | decreasing interaction strength | – | disrupting interaction strength | decreasing interaction strength | decreasing interaction strength | decreasing interaction strength | Transcription factor MYC3 (Arabidopsis thaliana (Mouse-ear cress)), Q9FIP9 L152A
disrupting interaction strength | disrupting interaction strength | disrupting interaction strength | disrupting interaction strength | disrupting interaction strength | disrupting interaction strength | disrupting interaction strength | disrupting interaction strength | disrupting interaction strength | disrupting interaction strength | disrupting interaction strength | Transcription factor MYC3 (Arabidopsis thaliana (Mouse-ear cress)), Q9FIP9 L152A;M155A
disrupting interaction strength | disrupting interaction strength | decreasing interaction strength | decreasing interaction strength | disrupting interaction strength | – | – | disrupting interaction strength | – | – | – | Transcription factor MYC3 (Arabidopsis thaliana (Mouse-ear cress)), Q9FIP9 M155A
disrupting interaction strength | – | – | – | – | – | – | – | – | – | – | Transcription factor MYC3 (Arabidopsis thaliana (Mouse-ear cress)), Q9FIP9 W92A

The next lines start with the substance.

Substance | effect of a mutation on the interaction [1] | effect of a mutation on the interaction [2] | effect of a mutation on the interaction [3] | effect of a mutation on the interaction [4] | effect of a mutation on the interaction [5] | effect of a mutation on the interaction [6] | effect of a mutation on the interaction [7] | effect of a mutation on the interaction [8] | effect of a mutation on the interaction [9] | effect of a mutation on the interaction [10] | effect of a mutation on the interaction [11]
Transcription factor MYC3 (Arabidopsis thaliana (Mouse-ear cress)), Q9FIP9 D94A;Y97A | decreasing interaction strength | decreasing interaction strength | decreasing interaction strength | decreasing interaction strength | decreasing interaction strength | – | – | – | – | – | –
Transcription factor MYC3 (Arabidopsis thaliana (Mouse-ear cress)), Q9FIP9 D94N | disrupting interaction strength | disrupting interaction strength | – | – | disrupting interaction strength | – | – | – | – | – | –
Transcription factor MYC3 (Arabidopsis thaliana (Mouse-ear cress)), Q9FIP9 F151A;L152A;M155A | disrupting interaction strength | disrupting interaction strength | disrupting interaction strength | disrupting interaction strength | disrupting interaction strength | disrupting interaction strength | disrupting interaction strength | disrupting interaction strength | disrupting interaction strength | disrupting interaction strength | disrupting interaction strength
Transcription factor MYC3 (Arabidopsis thaliana (Mouse-ear cress)), Q9FIP9 F151A;M155A | disrupting interaction strength | disrupting interaction strength | decreasing interaction strength | disrupting interaction strength | disrupting interaction strength | disrupting interaction strength | disrupting interaction strength | disrupting interaction strength | disrupting interaction strength | decreasing interaction strength | decreasing interaction strength
Transcription factor MYC3 (Arabidopsis thaliana (Mouse-ear cress)), Q9FIP9 W92A;D94A | disrupting interaction strength | – | – | – | – | – | – | – | – | – | –
Transcription factor MYC3 (Arabidopsis thaliana (Mouse-ear cress)), Q9FIP9 W92A;D94A;Y97A | disrupting interaction strength | disrupting interaction strength | disrupting interaction strength | disrupting interaction strength | disrupting interaction strength | disrupting interaction strength | disrupting interaction strength | disrupting interaction strength | disrupting interaction strength | disrupting interaction strength | disrupting interaction strength
Transcription factor MYC3 (Arabidopsis thaliana (Mouse-ear cress)), Q9FIP9 W92A;Y97A | disrupting interaction strength | disrupting interaction strength | disrupting interaction strength | disrupting interaction strength | disrupting interaction strength | disrupting interaction strength | decreasing interaction strength | disrupting interaction strength | decreasing interaction strength | decreasing interaction strength | decreasing interaction strength
Transcription factor MYC3 (Arabidopsis thaliana (Mouse-ear cress)), Q9FIP9 Y97A | disrupting interaction strength | – | – | – | – | – | – | – | – | – | –
